The results in this text go back to US20210145973A1 (CITY OF HOPE, published 2021).

Where no end group is shown, it is not given here. phosphorothioated ssDNA 20mer = not defined here

The target in test [1] is T1, acetylated-STAT3 protein (containing amino acids 127-722) (Homo sapiens (Human), UniProt P40763 127-722, acetylated (site not stated for this protein)).
T1 construct: Coated on the ELISA plate
Put plainly: ELISA, plate coated with acetylated-STAT3 protein (amino acids 127-722), n=3 (FIG. 20C, 20D). From the text: (§1) FIGS. 20A-20I: Conjugating phosphorothioated DNA oligonucleotides (PS) enables acetyl-STAT3 peptide cell penetration and specific interaction with STAT3 and exportin 7 proteins as well as downregulation of STAT3 activation. FIG. 20A. Phosphorothioated DNA oligonucleotide-modified STAT3 peptides efficiently penetrate human glioma cell line U251 and human colon cancer cell line HCT116, as assessed by flow cytometry. FIG. 20B. Cell penetration of the PS-acetyl-STAT3 peptide and its colocalization with STAT3 protein in U251 cells are shown by confocal microscopy. Scale, 50 μm. FIG. 20C and FIG. 20D. The PS acetyl-STAT3 peptide specifically binds to acetylated STAT3 protein and exportin 7, as assessed by ELISA, in which the plate is coated by an acetylated-STAT3 protein (containing amino acids 127-722), n=3. FIG. 20E and FIG. 20F. The specific interaction between acetyl-STAT3 peptide and STAT3/exportin 7 shown by immunoprecipitation of the FITC-labeled PS-acetyl-STAT3 peptide followed by Western blotting, shown in U251 cells. FIG. 20G. Downregulation of STAT3 phosphorylation, shown in HCT116 tumors by immunoprecipitation/Western blotting. FIG. 20H. […]
(§2) The PS acetyl-STAT3 peptide specifically binds to acetylated STAT3 protein and exportin 7, as assessed by ELISA, in which the plate is coated by an acetylated-STAT3 protein (containing amino acids 127-722), n=3 (FIG. 20C and FIG. 20D). […]
(ELISA stands for enzyme-linked immunosorbent assay.)

Test [2] addresses T2, STAT3 protein (human, UniProt P40763 2-770).
T2 construct: Endogenous STAT3 of human cells (U251, HepG2) or of HCT116 xenograft tumor homogenates
Put plainly: immunoprecipitation of the FITC-labeled peptide, Western blotting, U251 cells (FIG. 20E, 20F).
From the text: as §1, §2
For orientation: A western blot detects proteins with antibodies after separation by electrophoresis.

T1 sequence (P40763 127-722): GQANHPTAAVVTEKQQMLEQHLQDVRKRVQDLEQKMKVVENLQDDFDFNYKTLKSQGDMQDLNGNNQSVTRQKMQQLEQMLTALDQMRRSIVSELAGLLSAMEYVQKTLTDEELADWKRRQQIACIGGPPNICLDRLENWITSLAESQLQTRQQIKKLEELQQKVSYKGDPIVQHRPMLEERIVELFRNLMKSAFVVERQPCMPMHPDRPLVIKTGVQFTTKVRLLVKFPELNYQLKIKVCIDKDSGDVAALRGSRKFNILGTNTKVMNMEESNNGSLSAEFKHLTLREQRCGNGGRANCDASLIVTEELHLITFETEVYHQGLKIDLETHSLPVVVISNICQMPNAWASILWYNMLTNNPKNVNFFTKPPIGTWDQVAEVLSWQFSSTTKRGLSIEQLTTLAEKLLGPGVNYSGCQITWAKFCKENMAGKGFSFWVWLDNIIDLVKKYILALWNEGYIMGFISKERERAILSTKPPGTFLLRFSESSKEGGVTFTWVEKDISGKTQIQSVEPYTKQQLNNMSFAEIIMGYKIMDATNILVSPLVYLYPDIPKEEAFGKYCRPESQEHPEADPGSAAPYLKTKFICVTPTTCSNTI
T2 sequence (P40763 2-770 limits assumed): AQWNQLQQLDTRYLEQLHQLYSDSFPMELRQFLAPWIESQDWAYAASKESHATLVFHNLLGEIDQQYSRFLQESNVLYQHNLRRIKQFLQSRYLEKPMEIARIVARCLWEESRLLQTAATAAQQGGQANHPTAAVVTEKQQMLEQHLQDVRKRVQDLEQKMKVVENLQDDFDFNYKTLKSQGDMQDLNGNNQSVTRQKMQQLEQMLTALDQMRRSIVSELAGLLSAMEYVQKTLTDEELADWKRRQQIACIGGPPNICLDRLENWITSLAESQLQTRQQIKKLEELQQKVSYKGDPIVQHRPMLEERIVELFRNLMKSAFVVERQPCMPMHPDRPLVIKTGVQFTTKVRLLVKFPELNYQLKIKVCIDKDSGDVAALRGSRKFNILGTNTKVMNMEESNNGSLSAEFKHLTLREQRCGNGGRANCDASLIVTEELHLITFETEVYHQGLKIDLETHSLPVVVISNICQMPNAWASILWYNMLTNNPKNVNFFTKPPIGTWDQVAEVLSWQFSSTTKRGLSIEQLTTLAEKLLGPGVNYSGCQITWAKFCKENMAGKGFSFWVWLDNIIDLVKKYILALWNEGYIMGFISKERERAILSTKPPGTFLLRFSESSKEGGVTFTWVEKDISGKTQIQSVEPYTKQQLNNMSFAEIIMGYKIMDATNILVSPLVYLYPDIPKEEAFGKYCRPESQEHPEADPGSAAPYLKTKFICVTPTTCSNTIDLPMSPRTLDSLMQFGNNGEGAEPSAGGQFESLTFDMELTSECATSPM

B1: PS-acetyl-STAT3 peptide (STAT3-acet.K685 peptide elongated at its C-terminus with a phosphorothioated ssDNA 20mer, FITC-labeled) (peptide)
peptide: PDIPKEEAFGK(Ac)YCRPESQEHPC-{hydrazide linker with FITC (Fam dT)-phosphorothioated ssDNA 20mer}
modifications: cysteine pairing not given here; reading uncertain
notes: Peptide-oligonucleotide conjugate; only the peptide part is a polypeptide; The FITC in the linker was used as the tag for precipitation
As to B1, the binding result in test [1] and in test [2] was “binds” in each case.
